Source: US20200017592A1
Where two headings read alike, the source gives them in different places. Blank lines part the entries; values can stand above or below the substance they belong to.

Legend:
[1] = molecular target: full-length human IL-36R on cells (human) (UniProt Q9HB29)
[2] = molecular target: full-length human IL-36R on cells (human) (UniProt Q9HB29); assay: cell-based or functional assay
[3] = molecular target: Macaca fascicularis IL-36R on cells (Macaca fascicularis); assay: cell-based or functional assay
[4] = molecular target: full-length human IL-36R on cells (human) (UniProt Q9HB29); remark: listed apart in the source
[5] = molecular target: full-length human IL-36R on cells (human) (UniProt Q9HB29); remark: listed apart in the source
[6] = molecular target: full-length human IL-36R on cells (human) (UniProt Q9HB29); remark: listed apart in the source
[7] = molecular target: T1, human IL-36R (IL1RL2) on primary human cells (human) (UniProt Q9HB29); assay: cell-based or functional assay
T1 sequence (looked up): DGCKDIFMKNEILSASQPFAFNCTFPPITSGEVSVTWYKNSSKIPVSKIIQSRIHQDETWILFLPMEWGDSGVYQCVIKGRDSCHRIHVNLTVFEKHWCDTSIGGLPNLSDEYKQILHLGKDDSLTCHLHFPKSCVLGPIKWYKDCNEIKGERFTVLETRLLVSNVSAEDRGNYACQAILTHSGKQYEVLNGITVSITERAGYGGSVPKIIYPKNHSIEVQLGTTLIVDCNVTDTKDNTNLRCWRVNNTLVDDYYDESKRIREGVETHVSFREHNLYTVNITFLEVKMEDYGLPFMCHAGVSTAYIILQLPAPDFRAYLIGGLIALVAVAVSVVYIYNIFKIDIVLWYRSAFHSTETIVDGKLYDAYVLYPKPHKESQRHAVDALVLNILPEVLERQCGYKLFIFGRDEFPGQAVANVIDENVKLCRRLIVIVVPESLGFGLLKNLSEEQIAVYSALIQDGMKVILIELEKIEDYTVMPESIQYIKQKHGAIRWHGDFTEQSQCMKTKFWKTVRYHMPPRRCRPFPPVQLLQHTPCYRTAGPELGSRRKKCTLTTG

Chain of Macaca fascicularis IL-36R on cells (Macaca fascicularis) (chain, as listed by the source): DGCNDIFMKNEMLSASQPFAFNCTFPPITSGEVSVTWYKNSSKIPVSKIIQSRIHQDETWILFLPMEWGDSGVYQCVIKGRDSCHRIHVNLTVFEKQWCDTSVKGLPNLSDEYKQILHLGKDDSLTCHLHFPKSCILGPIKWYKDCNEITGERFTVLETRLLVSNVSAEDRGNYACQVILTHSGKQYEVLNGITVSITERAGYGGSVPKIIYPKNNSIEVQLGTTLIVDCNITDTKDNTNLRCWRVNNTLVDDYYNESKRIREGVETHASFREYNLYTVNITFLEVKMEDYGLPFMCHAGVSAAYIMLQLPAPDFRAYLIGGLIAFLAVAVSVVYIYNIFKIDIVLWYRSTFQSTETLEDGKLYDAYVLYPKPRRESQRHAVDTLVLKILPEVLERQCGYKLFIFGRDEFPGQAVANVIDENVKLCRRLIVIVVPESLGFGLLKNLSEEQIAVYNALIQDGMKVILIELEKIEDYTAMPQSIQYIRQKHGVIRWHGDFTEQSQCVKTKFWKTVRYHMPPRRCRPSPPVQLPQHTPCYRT

EC50 (read off the curve) of hIL36α, NFκB-luciferase RLU, in the presence of 0.1 nM REGN6489 [1]: 0.04 nM
EC50 (read off the curve) of hIL36α, NFκB-luciferase RLU, in the presence of 0.3 nM REGN6489 [1]: 0.2 nM
EC50 (read off the curve) of hIL36α, NFκB-luciferase RLU, in the presence of 1 nM REGN6489 [1]: 0.6 nM
EC50 (read off the curve) of hIL36α, NFκB-luciferase RLU, in the presence of 3 nM REGN6489 [1]: 2 nM
EC50 (read off the curve) of hIL36α, NFκB-luciferase RLU, in the presence of 9 nM REGN6489 [1]: 5 nM
EC50 (read off the curve) of hIL36α, NFκB-luciferase RLU, no antibody [1]: 0.02 nM
EC50, NFκB-luciferase, HEK293/NFκB-luc/hIL-36R cells [2]: 0.012 nM
EC50, NFκB-luciferase, HEK293/NFκB-luc/MfIL-36R cells [3]: 0.17 nM
EC50 (read off the curve) of hIL36α, NFκB-luciferase RLU, in the presence of 0.3 nM REGN6490 [4]: 0.05 nM
EC50 (read off the curve) of hIL36α, NFκB-luciferase RLU, in the presence of 1 nM REGN6490 [4]: 0.2 nM
EC50 (read off the curve) of hIL36α, NFκB-luciferase RLU, in the presence of 3 nM REGN6490 [4]: 0.7 nM
EC50 (read off the curve) of hIL36α, NFκB-luciferase RLU, in the presence of 9 nM REGN6490 [4]: 2 nM
Substance: human IL-36α (from UniProt Q9UHA7 6-158) (ligand)

EC50 (read off the curve) of hIL36γ, NFκB-luciferase RLU, in the presence of 0.3 nM REGN6490 [5]: 0.004 nM
EC50 (read off the curve) of hIL36γ, NFκB-luciferase RLU, in the presence of 1 nM REGN6490 [5]: 0.02 nM
EC50 (read off the curve) of hIL36γ, NFκB-luciferase RLU, in the presence of 3 nM REGN6490 [5]: 0.06 nM
EC50 (read off the curve) of hIL36γ, NFκB-luciferase RLU, in the presence of 9 nM REGN6490 [5]: 0.2 nM
EC50 (read off the curve) of hIL36γ, NFκB-luciferase RLU, no antibody [5]: 0.003 nM
EC50, NFκB-luciferase, HEK293/NFκB-luc/hIL-36R cells [2]: 0.0084 nM
EC50, NFκB-luciferase, HEK293/NFκB-luc/MfIL-36R cells [3]: 0.062 nM
EC50 (read off the curve) of hIL36γ, NFκB-luciferase RLU, in the presence of 0.1 nM REGN6489 [6]: 0.002 nM
EC50 (read off the curve) of hIL36γ, NFκB-luciferase RLU, in the presence of 0.3 nM REGN6489 [6]: 0.008 nM
EC50 (read off the curve) of hIL36γ, NFκB-luciferase RLU, in the presence of 1 nM REGN6489 [6]: 0.03 nM
EC50 (read off the curve) of hIL36γ, NFκB-luciferase RLU, in the presence of 3 nM REGN6489 [6]: 0.1 nM
EC50 (read off the curve) of hIL36γ, NFκB-luciferase RLU, in the presence of 9 nM REGN6489 [6]: 0.3 nM
EC50 (read off the curve) of hIL36γ, NFκB-luciferase RLU, no antibody [6]: 0.001 nM
Substance: human IL-36γ (from UniProt Q9NZH8 18-169) (ligand)

EC50[M], IL-8 production, Intestinal MyoFibroblasts (InMyoFib), hIL-36α [7]: 1.41e-09 M
EC50[M], IL-8 production, Normal Epidermal Keratinocytes (NHEK), hIL-36α [7]: 1.43e-09 M
EC50[M], IL-8 production, PB-derived CD14+ Monocytes, hIL-36α [7]: 2.75e-09 M
Substance: rhIL-36α/IL-1F6 [aa6-158] (from UniProt Q9UHA7 6-158) (ligand)

EC50[M], IL-8 production, Intestinal MyoFibroblasts (InMyoFib), hIL-36γ [7]: 1.46e-09 M
EC50[M], IL-8 production, Normal Epidermal Keratinocytes (NHEK), hIL-36γ [7]: 4e-09 M
EC50[M], IL-8 production, PB-derived CD14+ Monocytes, hIL-36γ [7]: 2.75e-09 M
Substance: rhIL-36γ/IL-1F9 [aa18-169] (from UniProt Q9NZH8 18-169) (ligand)
